Drawing on publication PMC314469, “Protein Interaction Networks by Proteome Peptide Scanning” (PLoS Biology, 2004), this text covers normalised SPOT signal, Boehringer light units (BLU); mean over the file's lines of this peptide for 15 molecules.

First the molecules themselves.
T1: amphyphisin SH3 (AMPH_HUMAN), P49418
T1 chain: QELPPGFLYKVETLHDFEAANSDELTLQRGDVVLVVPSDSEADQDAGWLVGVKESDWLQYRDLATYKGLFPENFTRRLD

The target of the first experiment is T1, amphyphisin SH3 (AMPH_HUMAN), P49418. The experiment can be described thus: SPOT array.
Regarding KKDSFERPRRVGAK [O95391 130-143], the normalised SPOT signal, Boehringer light units (BLU); mean over the file's lines of this peptide is 2590.
For KIIPPKKPPTKVVP [Q8WZ42 11374-11388], the normalised SPOT signal, Boehringer light units (BLU); mean over the file's lines of this peptide was 39.
Turning to KIVDPKRPLMPEES [Q9BXK3 581-594], the normalised SPOT signal, Boehringer light units (BLU); mean over the file's lines of this peptide turned out to be 26.8.
Same read-out and setting: next, KGRVLKRPPNSVVT [Q9HC49 341-354]: 33.1; KFWDLRRPYEPINS [Q16632 639-652]: 44.3.
Still for that read-out and setting: in the case of KGSKPVRPPAPGHG [Q9UH43 133-147] it was 64.8; in that of KGPGPQKPPTEADK [O15021 1933-1947], 59.9.
Molecule KGAPFRRPLYTNVP [Q9NQ11 1067-1080] had a normalised SPOT signal, Boehringer light units (BLU); mean over the file's lines of this peptide of 36.3.
The same measure, in the same setting: next, KIGFFKRPLKKKME [P56199 1137-1150]: 149; KKPDIPRPIKINLL [Q9UHI5 412-425]: 159.
As to KISWLSRPRRVSLS [Q13577 12-25], the normalised SPOT signal, Boehringer light units (BLU); mean over the file's lines of this peptide stood at 1200.
KIPKPPKPPKPPRP [Q9Y6N4 503-517] displayed a normalised SPOT signal, Boehringer light units (BLU); mean over the file's lines of this peptide of 1310.
With ANIRLKRPLKMEDP [P23378 97-110], the normalised SPOT signal, Boehringer light units (BLU); mean over the file's lines of this peptide worked out at 21.8.
Consider KITPPRRPHRSSSG [Q9NWB4 151-164], for which the normalised SPOT signal, Boehringer light units (BLU); mean over the file's lines of this peptide worked out at 6680.
The molecule KGTIPKRPWLSATP [O15043 393-406] yielded a normalised SPOT signal, Boehringer light units (BLU); mean over the file's lines of this peptide of 35.5.

The next experiment addresses endophilin SH3 (SH3G2_HUMAN), Q99962. The experiment can be described thus: SPOT array.
KKDSFERPRRVGAK [O95391 130-143] had a normalised SPOT signal, Boehringer light units (BLU); mean over the file's lines of this peptide of 106.
Still for that read-out and setting: next, KIIPPKKPPTKVVP [Q8WZ42 11374-11388]: 132; KIVDPKRPLMPEES [Q9BXK3 581-594]: 34.
KGRVLKRPPNSVVT [Q9HC49 341-354] came in with a normalised SPOT signal, Boehringer light units (BLU); mean over the file's lines of this peptide of 25.2.
KFWDLRRPYEPINS [Q16632 639-652] had a normalised SPOT signal, Boehringer light units (BLU); mean over the file's lines of this peptide of 61.9.
Still for that read-out and setting: next, KGSKPVRPPAPGHG [Q9UH43 133-147]: 21200; KGPGPQKPPTEADK [O15021 1933-1947]: 82.6.
In turn, KGAPFRRPLYTNVP [Q9NQ11 1067-1080] showed a normalised SPOT signal, Boehringer light units (BLU); mean over the file's lines of this peptide of 167.
The same measure, in the same setting: in the case of KIGFFKRPLKKKME [P56199 1137-1150] it was 200; in that of KKPDIPRPIKINLL [Q9UHI5 412-425], 307; in that of KISWLSRPRRVSLS [Q13577 12-25], 492.
KIPKPPKPPKPPRP [Q9Y6N4 503-517] gave a normalised SPOT signal, Boehringer light units (BLU); mean over the file's lines of this peptide of 9990.
Still for that read-out and setting: in the case of ANIRLKRPLKMEDP [P23378 97-110] it was 228.
Molecule KITPPRRPHRSSSG [Q9NWB4 151-164] displayed a normalised SPOT signal, Boehringer light units (BLU); mean over the file's lines of this peptide of 2730.
Regarding KGTIPKRPWLSATP [O15043 393-406], the normalised SPOT signal, Boehringer light units (BLU); mean over the file's lines of this peptide came out at 516.
